Experimental data taken from patent publication US20040213794.

Test system: myelin basic protein (MBP)

| Substance | in gel kinase assay (MBP as substrate) |
| --- | --- |
| Mst1 (mammalian sterile 20-like kinase-1), full length 61 kD form, endogenous in neonatal rat cardiac myocytes | activation of the full length (61 kD) and cleaved (34 kD) forms of Mst1 after 6 hr Doxo stimulation of cardiac myocytes |
| Mst1, cleaved 34 kD form (amino-terminal half containing the N-terminal kinase domain), in neonatal rat cardiac myocytes | activation of the full length (61 kD) and cleaved (34 kD) forms of Mst1 after 6 hr Doxo stimulation of cardiac myocytes |
